In PMC9481602 (Nature Communications, 2022):

Assays:
[1] = target: T1, ubiquitin acetylated at K11 (UniProt P0CG48 1-76, acetyllysine (AcK) at position 11); assay: NMR titration; unlabelled Ubiquilin-2 UBA domain added stepwise to 15N-labelled Ub variants (33 µM Ub 11AcK and nonmodified Ub; 157 µM the other variants); 1H-15N HSQC, 298 K, 18.8 T, 20 mM NaH2PO4 pH 6.8, 5% D2O; global fit of six residues assuming 1:1 binding; conditions: both partners purified
T1 construct: ubiquitin (Ub), the 76-residue cut product of its precursors; codon-optimized cDNA; K11 replaced by acetyllysine; 15N isotopically labelled in the NMR titration; also called Ub 11AcK; source: E. coli B834 (DE3), amber suppression with AcK-RS/tRNA, purified (HisTrap, His-tag removed with UCHL3, HiTrap SP); not shown: His6, C-terminal, cleaved

nonmodified ubiquitin = target: T2, nonmodified ubiquitin (UniProt P0CG48 1-76); assay: as above; conditions: both partners purified
T2 construct: ubiquitin (Ub), the 76-residue cut product of its precursors; codon-optimized cDNA; 15N isotopically labelled in the NMR titration; also called Ub (wt); source: E. coli, purified (HisTrap, His-tag removed with UCHL3, HiTrap SP); not shown: His6, C-terminal, cleaved

B1: UBA domain of human Ubiquilin-2 (domain or fragment, UniProt Q9UHD9 581-621, looked up)
chain: RFQQQLEQLNAMGFLNREANLQALIATGGDINAAIERLLGS
notes: Ubiquilin-2 (Chap1, hPLIC-2), human, UBA domain; Unlabelled; also called UQ2-UBA; Chap1; source: E. coli BL21 (DE3) Rosetta, purified (Glutathione Sepharose, TEV cleavage, SEC); not shown: GST, N-terminal, cleaved
Q: With B1 as the binder, how does the Kd [1] read?
A: 8 ± 0.8 µM

Q: And the Kd (nonmodified ubiquitin)?
A: 2000 ± 400 nM
